# US20170101472A1 (Regeneron, published 2017)
# T1: recombinant human LAG3 expressed with a C-terminal mouse IgG2a mFc tag (human)
# T1 construct: Called dimeric; also called hLAG3-mFc; hLAG3 dimer
# T1 chain: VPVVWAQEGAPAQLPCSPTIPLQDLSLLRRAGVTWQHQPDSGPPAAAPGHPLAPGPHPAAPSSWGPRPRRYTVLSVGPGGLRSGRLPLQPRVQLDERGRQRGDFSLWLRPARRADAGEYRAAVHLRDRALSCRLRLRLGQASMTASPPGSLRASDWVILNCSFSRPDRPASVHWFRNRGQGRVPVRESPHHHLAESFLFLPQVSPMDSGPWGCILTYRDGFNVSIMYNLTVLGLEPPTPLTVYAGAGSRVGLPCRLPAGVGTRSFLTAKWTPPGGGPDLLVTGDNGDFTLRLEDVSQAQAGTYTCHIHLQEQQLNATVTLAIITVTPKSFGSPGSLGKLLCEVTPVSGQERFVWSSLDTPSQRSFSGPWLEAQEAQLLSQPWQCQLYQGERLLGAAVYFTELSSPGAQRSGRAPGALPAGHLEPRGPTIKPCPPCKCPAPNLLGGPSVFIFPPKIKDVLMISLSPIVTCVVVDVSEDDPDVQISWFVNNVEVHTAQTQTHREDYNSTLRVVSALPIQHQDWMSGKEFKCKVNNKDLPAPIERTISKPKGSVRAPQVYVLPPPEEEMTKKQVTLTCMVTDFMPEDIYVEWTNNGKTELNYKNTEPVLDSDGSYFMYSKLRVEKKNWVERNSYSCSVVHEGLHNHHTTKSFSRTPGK
# T2: monkey LAG3 (mfLAG3) expressed on HEK293 cells (cynomolgus monkey, UniProt P18627 24-525 (human entry))
# T2 construct: also called HEK293/mfLAG3; HEK293-mfLAG3
# T2 chain: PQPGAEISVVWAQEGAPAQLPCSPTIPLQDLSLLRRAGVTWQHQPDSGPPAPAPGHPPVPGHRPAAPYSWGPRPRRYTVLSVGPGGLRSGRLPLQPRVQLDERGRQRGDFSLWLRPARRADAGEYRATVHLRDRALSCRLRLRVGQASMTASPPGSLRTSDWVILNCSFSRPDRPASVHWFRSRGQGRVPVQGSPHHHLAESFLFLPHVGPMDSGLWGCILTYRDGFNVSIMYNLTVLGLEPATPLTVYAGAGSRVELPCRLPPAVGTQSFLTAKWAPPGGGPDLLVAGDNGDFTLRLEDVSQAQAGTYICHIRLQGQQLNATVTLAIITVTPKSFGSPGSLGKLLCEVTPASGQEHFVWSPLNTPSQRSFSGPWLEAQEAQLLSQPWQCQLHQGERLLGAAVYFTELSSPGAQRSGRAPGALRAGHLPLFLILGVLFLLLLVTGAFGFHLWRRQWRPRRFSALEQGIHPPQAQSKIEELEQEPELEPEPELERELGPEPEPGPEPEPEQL
# B1: H4H15479P (antibody, human IgG4, V domains shown)
# VH: QVQLQQWGAGLLNPSETLSLTCAVYGGAFSDYYWNWIRQPPGKGLEWIGEINHRGSTNYNPSLKSRVTISVDTSKNQFSLRMSSVTAADAAVYYCARGEDYDIWNGYYQEKWGQGTLVTVSS
# VL: EIVLTQSPATLSLSPGERATLSCRASQSISTYLAWYQQKPGQAPRLLIYDASKRATGIPARFSGSGSGTDFTLTISSLEPEDFVVYYCHQRSNWPLTFGGGTKVEIK
# B2: H4sH15498P2 (antibody, V domains shown)
# VH: EVQLVESGGGLVQPGGSLRLSCAASGFTFTSYAMTWVRQAPGKGLEWVSDISGSGGRTYYADSVKGRFTISRDNSKNMLYLQMNILRAEDTAVYHCAKGTGQQVDLYNYYYALDVWGQGTTVTVSS
# VL: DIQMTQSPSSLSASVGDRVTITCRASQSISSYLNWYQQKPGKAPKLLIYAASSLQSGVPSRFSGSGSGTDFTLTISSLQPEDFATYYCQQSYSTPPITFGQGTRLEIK
# notes: H4sH = human IgG4 Fc with 2 or more amino acid changes as disclosed in US20140243504
# B3: H4H15498P2 (antibody, human IgG4, V domains shown)
# VH: B2 VH
# VL: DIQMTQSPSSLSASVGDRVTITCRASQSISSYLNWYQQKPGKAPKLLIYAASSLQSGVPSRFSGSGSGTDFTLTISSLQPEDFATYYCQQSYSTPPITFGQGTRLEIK
# notes: H4H = human IgG4 Fc with S108P hinge mutation
# B4: H4H17826P2 (antibody, human IgG4, V domains shown)
# VH: EVQLVESGGGLVQPGGSLRLSCAASGFTFSSYEMNWVRQAPGKGLEWVSYISSSGNTKDYAGSVKGRVTISRDNAKNLLYLQMNSLRAEDTAVYHCARDGGHYDILTGSMSYYYYALDVWGQGTTVTVSS
# VL: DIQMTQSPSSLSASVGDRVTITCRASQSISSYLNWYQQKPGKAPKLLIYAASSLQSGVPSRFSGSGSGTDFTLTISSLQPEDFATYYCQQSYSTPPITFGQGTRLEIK
# notes: as for B3
# B5: H4H17819P (antibody, human IgG4, V domains shown)
# VH: EVQLVESGGGLVQPGGSLRLSCVASGFTFSLYAMTWVRQVPGKGLEWVSTISGSGGGTYYTDSVKGRFTISRDNSKNTLYLQMNSLRADDTAVFYCTKESTTGTYSYFYGMDVWGQGTTVTVSS
# VL: DIQMTQSPSSLSASVGDRVTITCRASQTISSYLNWYQQKPGKAPKLLIYAASSLQSGVPSRFSGSGSGTDFTLTLSGLQPEDFATYYCQQSYSTPLTFGGGTKVEIK
# notes: as for B3
# B6: H4H17828P2 (antibody, human IgG4, V domains shown)
# VH: EVQLVESGGGLVQPGGSLRLSCAASGFTFKTYAMSWVRQAPGRGLEWVSGISGSGSTSYYADSVKGRFTISRDNYKKTLSLQMNSLRAEDTAVYYCALDIMATVGGLFNNWGQGTLVTVSS
# VL: not shown
# notes: as for B3
# Biological target: T3, recombinant human LAG3 expressed with a C-terminal myc-myc-hexahistidine tag (human, UniProt P18627 29-450)
# T3 construct: also called hLAG3-mmh; hLAG3.mmh
# Test: SPR, mAb captured, 25 C
# Protocol: (§1) The BiaCore sensor surface was derivatized with either a polyclonal rabbit anti-mouse antibody (GE, # BR-1008-38) or with a monoclonal mouse anti-human Fc antibody (GE, # BR-1008-39) to capture approximately 50-85 RUs of anti-LAG3 monoclonal antibodies, expressed with either a mouse Fc or a human Fc, respectively. […] The binding of the LAG3 reagents to captured monoclonal antibodies was monitored for 4 minutes while their dissociation from the antibodies was monitored for 8 minutes in HBST running buffer (0.01 M HEPES pH 7.4, 0.15 M NaCl, 3 mM EDTA, 0.05% v/v Surfactant P20). Experiments were performed at 25° C. and 37° C. Kinetic association (kₐ) and dissociation (kd) rate constants were determined by processing and fitting the data to a 1:1 binding model using Scrubber 2.0c curve fitting software. Binding dissociation equilibrium constants (KD) and dissociative half-lives (t_{1/2}) were then calculated from the kinetic rate constants as: KD (M)=kd/kₐ and t_{1/2} (min)=[ln2/(60*kd)].
Binder,Kd [nM],koff [s⁻¹],kon [M⁻¹ s⁻¹],t1/2 [h]
B1,0.0493,5.35e-05,1.09e+06,3.6
B2,0.645,0.000101,157000,1.9
B3,0.26,7.81e-05,301000,2.46
B4,10.2,0.00457,450000,0.0417
B5,0.391,0.000443,1.13e+06,0.433
B6,2.31,0.00141,612000,0.137

# Biological target: T1, recombinant human LAG3 expressed with a …
# Test: SPR, mAb captured, 25 C
# Protocol: as §1
Binder,Kd [nM],koff [s⁻¹],kon [M⁻¹ s⁻¹],t1/2 [h]
B1,≤ 0.00435,≤ 1e-05,2.3e+06,≥ 19.2
B2,≤ 0.0352,≤ 1e-05,284000,≥ 19.2
B3,≤ 0.0276,≤ 1e-05,363000,≥ 19.2
B4,0.817,0.000564,691000,0.342
B5,0.124,0.00018,1.45e+06,1.07
B6,0.245,0.00046,1.88e+06,0.418

# Biological target: T2, monkey LAG3 (mfLAG3) expressed on …
# Test: electrochemiluminescence cell binding
# Protocol: (§2) To investigate the ability of a panel of anti-LAG3 monoclonal antibodies to bind cell-surface expressed LAG3, an in vitro binding assay utilizing human and monkey LAG3 expressing cell lines in an electrochemiluminescence based detection platform [Meso Scale Diagnostics, Rockville, Md.—(MSD)] was developed.
# (§3) Experiments were carried out according to following procedure. Cells from the three cell lines described above were rinsed once in 1×PBS buffer without Ca²⁺/Mg²⁺ followed by 10-minute incubation at 37° C. with Enzyme Free Cell Dissociation Solution. […] Approximately 10,000 cells per well in the cell-washing buffer were seeded into the 96-well carbon electrode plates (MULTI-ARRAY high bind plate, MSD) and incubated for 1 hour at 37° C. to allow the cells to adhere. Nonspecific binding sites were blocked by 2% BSA (w/v) in PBS for 1 hour at room temperature. […] The plates were then washed to remove the unbound antibodies using an AquaMax2000 plate washer (MDS Analytical Technologies). The plate-bound antibodies were detected with a SULFO-TAG™-conjugated anti-human IgG antibody (MSD) for 1 hour at room temperature. After washes, the plates were developed with the Read Buffer (MSD) according to manufacturer's recommended procedure and the luminescent signals were recorded with a SECTOR Imager 6000 (MSD) instrument. The direct binding signals (in relative light units—RLU) were analyzed as a function of the antibody concentration and the data were fitted with a sigmoidal (four-parameter logistic) dose-response model using Graph Pad Prism™ software. The potency of each antibody was determined by calculating EC₅₀.
row,Binder,Ratio of 100 nM antibody binding HEK293-mfLAG3 to HEK293 cells
1,B1,2.1
2,B2,32.7
3,B3,13.8
4,B4,4.7
5,B5,8.3
6,B6,6

# Biological target: T2, monkey LAG3 (mfLAG3) expressed on …
# Test: electrochemiluminescence cell binding, HEK293-mfLAG3
# Protocol: as §2, §3
row,Binder,EC50 [nM]
1,B1,73.9
2,B2,20
3,B3,9.68
4,B4,7.85
5,B5,40.2
6,B6,13.1
